Test results: patent publication US20180066015A1, “INHIBITORS OF GROWTH FACTOR ACTIVATION ENZYMES” (Washington University, published 2018)
Several values for one entry are separate records, joined by “and”; a condition that tells them apart may be missing. Equal values may be shown once. Positions of bridges follow the written chain, without caps; N, C: chain ends. Primed or numbered codes have the meaning given here. *: point of attachment. kbt‑6‑CONH‑4‑piperidine = ketobenzothiazole-6-CONH-4-piperidine (Kbt-4-piperidinylamide), O=C(NC1CCNCC1)c1ccc2nc(*)sc2c1; kbt‑6‑CONH‑Bn = ketobenzothiazole-6-CONH-benzyl (Kbt-benzylamide), O=C(NCc1ccccc1)c1ccc2nc(*)sc2c1; Kbt = ketobenzothiazole, c1ccc2sc(*)nc2c1; kt = C-terminal ketothiazole, c1csc(*)n1; kt″ = ketothiazole, c1csc(*)n1

B1: Ac-KHLR(SEQ ID NO: 2)-kt (peptide)
peptide: Ac-KHLR-{kt″}
SMILES: CC(=O)N[C@@H](CCCCN)C(=O)N[C@@H](Cc1c[nH]cn1)C(=O)N[C@@H](CC(C)C)C(=O)N[C@@H](CCCNC(=N)N)C(=O)c1nccs1
B2: Ac-SQLR(SEQ ID NO: 7)-kt (peptide)
peptide: Ac-SQLR-kt
SMILES: CC(=O)N[C@@H](CO)C(=O)N[C@@H](CCC(N)=O)C(=O)N[C@@H](CC(C)C)C(=O)N[C@@H](CCCNC(=N)N)C(=O)c1nccs1
B3: Ac-NKLR(SEQ ID NO: 14)-kt (peptide)
peptide: Ac-NKLR-kt
SMILES: CC(=O)N[C@@H](CC(N)=O)C(=O)N[C@@H](CCCCN)C(=O)N[C@@H](CC(C)C)C(=O)N[C@@H](CCCNC(=N)N)C(=O)c1nccs1
B4: Ac-TKLR(SEQ ID NO: 16)-kt (peptide)
peptide: Ac-TKLR-kt
SMILES: CC(=O)N[C@H](C(=O)N[C@@H](CCCCN)C(=O)N[C@@H](CC(C)C)C(=O)N[C@@H](CCCNC(=N)N)C(=O)c1nccs1)[C@@H](C)O

These binders were tested against Factor Xa (assay: selectivity inhibition assay).
Work on Ac-SKLR-{kbt‑6‑CONH‑Bn} [Ac-SKLR(SEQ ID NO: 10)-Kbt-benzylamide] yielded a Ki of 190 nM.
Binder Ac-SKLR-{kbt‑6‑CONH‑4‑piperidine} [Ac-SKLR(SEQ ID NO: 10)-Kbt-4-piperidinylamide] has a Ki of 447 nM.
Ac-KRLR-Kbt (not fully specified) [Ac-KRLR(SEQ ID NO: 8)-Kbt-5-COOH] showed a Ki of 20.2 nM.
With Ac-KRLR-{Kbt-Benzyl‑3‑COOMe} [Ac-KRLR(SEQ ID NO: 8)-kbt-Benzyl-3-COOMe] the Ki was 14 nM.
Ac-KRLR-{Kbt-Benzyl‑4‑COOMe} [Ac-KRLR(SEQ ID NO: 8)-kbt-Benzyl-4-COOMe] gave a Ki of 9 nM.

The binders below were run against Trypsin (assay: selectivity inhibition assay).
In the case of Ac-SKLR-{kbt‑6‑CONH‑Bn} [Ac-SKLR(SEQ ID NO: 10)-Kbt-benzylamide], the Ki is reported as 0.05 nM.
Binder Ac-SKLR-{kbt‑6‑CONH‑4‑piperidine} [Ac-SKLR(SEQ ID NO: 10)-Kbt-4-piperidinylamide] has a Ki of 0.41 nM.
For Ac-KRLR-Kbt (not fully specified) [Ac-KRLR(SEQ ID NO: 8)-Kbt-5-COOH], the Ki was 1.06 nM.
Work on Ac-KRLR-{Kbt-Benzyl‑3‑COOMe} [Ac-KRLR(SEQ ID NO: 8)-kbt-Benzyl-3-COOMe] yielded a Ki of 0.04 nM.
Work on Ac-KRLR-{Kbt-Benzyl‑4‑COOMe} [Ac-KRLR(SEQ ID NO: 8)-kbt-Benzyl-4-COOMe] yielded a Ki of 0.05 nM.

The binders below were run against recombinant thrombin (assay: selectivity inhibition assay).
Work on Ac-SKLR-{kbt‑6‑CONH‑Bn} [Ac-SKLR(SEQ ID NO: 10)-Kbt-benzylamide] yielded a Ki of 2470 nM.
Binder Ac-SKLR-{kbt‑6‑CONH‑4‑piperidine} [Ac-SKLR(SEQ ID NO: 10)-Kbt-4-piperidinylamide] has a Ki of 2950 nM.
In the case of Ac-KRLR-Kbt (not fully specified) [Ac-KRLR(SEQ ID NO: 8)-Kbt-5-COOH], the Ki is reported as 1940 nM.
Binder Ac-KRLR-{Kbt-Benzyl‑3‑COOMe} [Ac-KRLR(SEQ ID NO: 8)-kbt-Benzyl-3-COOMe] has a Ki of 85.4 nM.
Ac-KRLR-{Kbt-Benzyl‑4‑COOMe} [Ac-KRLR(SEQ ID NO: 8)-kbt-Benzyl-4-COOMe] showed a Ki of 20.9 nM.

The binders below were run against T1, Recombinant human hepsin (4776-SE-010, R&D Systems), activated (human, UniProt P05981) (assay: fluorogenic inhibition assay).
Experimental: (§1) Inhibitors (11-pt serial dilutions, 0-20 μM final concentration in reaction) were serially diluted in DMSO (2% DMSO final concentration) and then mixed with either recombinant serine protease domain of HGFA [Z. Han, P. K. Harris, D. E. Jones, R. Chugani, T. Kim, M. Agarwal, W. Shen, S. A. Wildman, J. W. Janetka, Acs Med Chem Lett 2014, 5, 1219-1224], matriptase (Charles Craik, UCSF) or hepsin* (#4776-SE-010, R&D Systems, Minneapolis, Minn.) in black 384 well plates (Corning #3575. Corning, N.Y.). […] The final substrate concentrations for all assays were at the Kₘ for the respective enzymes. Changes in fluorescence (excitation at 380 nm and emission at 460 nm) were measured at room temperature over time in a Biotek Synergy 2 plate reader (Winnoski, Vt.). Using GraphPad Prism version 6.04 software program, (GraphPad Software, San Diego, Calif., www.graphpad.com), a four parameter curve fit was used to determine the inhibitor IC₅₀s from a plot of the mean reaction velocity versus the inhibitor concentration. The IC₅₀ values represent the average of three separate experimental determinations.
(§2) Fluorescent inhibitor and chromogenic proteolytic assays were performed in general accordance with the procedures described in Example 4 for compounds prepared in Examples 5 and 6.
Ac-SKLR-{kbt‑6‑CONH‑Bn} [Ac-SKLR(SEQ ID NO: 10)-Kbt-benzylamide] gave a Ki of 0.8 nM.
Work on Ac-SKLR-{kbt‑6‑CONH‑4‑piperidine} [Ac-SKLR(SEQ ID NO: 10)-Kbt-4-piperidinylamide] yielded a Ki of 0.2 nM.
Ac-KRLR-Kbt (not fully specified) [Ac-KRLR(SEQ ID NO: 8)-Kbt-5-COOH] showed a Ki of 0.37 nM.
Work on Ac-KRLR-{Kbt-Benzyl‑3‑COOMe} [Ac-KRLR(SEQ ID NO: 8)-kbt-Benzyl-3-COOMe] yielded a Ki of 0.36 nM.
Ac-KRLR-{Kbt-Benzyl‑4‑COOMe} [Ac-KRLR(SEQ ID NO: 8)-kbt-Benzyl-4-COOMe] showed a Ki of 0.26 nM.

What follows are binders tested against T2, matriptase (Charles Craik, UCSF), recombinant (Homo sapiens (Human), UniProt Q9Y5Y6) (assay: fluorogenic inhibition assay).
T2 sequence: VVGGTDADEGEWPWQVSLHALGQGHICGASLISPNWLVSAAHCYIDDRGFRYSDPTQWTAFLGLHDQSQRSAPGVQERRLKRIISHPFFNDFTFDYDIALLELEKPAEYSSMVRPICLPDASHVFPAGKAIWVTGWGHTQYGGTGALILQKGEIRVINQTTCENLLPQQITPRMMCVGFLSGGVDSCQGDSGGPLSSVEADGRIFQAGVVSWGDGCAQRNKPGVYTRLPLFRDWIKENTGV
Experimental: as §1, §2
For Ac-SKLR-{kbt‑6‑CONH‑Bn} [Ac-SKLR(SEQ ID NO: 10)-Kbt-benzylamide], the Ki was 0.36 nM.
With Ac-SKLR-{kbt‑6‑CONH‑4‑piperidine} [Ac-SKLR(SEQ ID NO: 10)-Kbt-4-piperidinylamide] the Ki was 1.28 nM.
Binder Ac-KRLR-Kbt (not fully specified) [Ac-KRLR(SEQ ID NO: 8)-Kbt-5-COOH] has a Ki of 5.14 nM.
Work on Ac-KRLR-{Kbt-Benzyl‑3‑COOMe} [Ac-KRLR(SEQ ID NO: 8)-kbt-Benzyl-3-COOMe] yielded a Ki of 1.8 nM.
Ac-KRLR-{Kbt-Benzyl‑4‑COOMe} [Ac-KRLR(SEQ ID NO: 8)-kbt-Benzyl-4-COOMe] gave a Ki of 0.98 nM.

These binders were tested against Hepatocyte Growth Factor Activator (HGFA) serine protease domain, N-terminal His-tag, recombinant (Homo sapiens (Human)) (UniProt Q04756) (assay: fluorogenic inhibition assay).
Binder B1 has a Ki of 96 nM.
In the case of Ac-SKLR-{kbt‑6‑CONH‑Bn} [Ac-SKLR(SEQ ID NO: 10)-Kbt-benzylamide], the Ki is reported as 9.1 nM.
Binder Ac-SKLR-{kbt‑6‑CONH‑4‑piperidine} [Ac-SKLR(SEQ ID NO: 10)-Kbt-4-piperidinylamide] has a Ki of 7.7 nM.
In the case of Ac-KRLR-Kbt (not fully specified) [Ac-KRLR(SEQ ID NO: 8)-Kbt-5-COOH], the Ki is reported as 6.07 nM.
For Ac-KRLR-{Kbt-Benzyl‑3‑COOMe} [Ac-KRLR(SEQ ID NO: 8)-kbt-Benzyl-3-COOMe], the Ki was 7.76 nM.
Ac-KRLR-{Kbt-Benzyl‑4‑COOMe} [Ac-KRLR(SEQ ID NO: 8)-kbt-Benzyl-4-COOMe] was tested, and the Ki was 5.85 nM.
Work on H-KQDRR-kt (lactam 1-3; also: 3:1 D/L diastereomers at the alpha keto carbon) [H-cyclo(KQD)RR-kt] yielded a Ki of 5940 nM.
In the case of B2, the Ki is reported as 182 nM.
With B3 the Ki was 79 nM.
Binder B4 has a Ki of 103 nM.
Ac-Leu-Leu-Arg-kt [Ac-LLR-kt] was tested, and the Ki was 253 nM.

Each binder was assayed against Hepatocyte Growth Factor Activator (HGFA) serine protease domain, N-terminal His-tag, recombinant (Homo sapiens (Human)) (UniProt Q04756) (assay: not given).
For B1, the IC50 of enzyme inhibition was 650 nM.
With B2 the IC50 of enzyme inhibition was 180 nM.
B3 was tested, and the IC50 of enzyme inhibition was 397 nM and 400 nM.
B4 showed an IC50 of enzyme inhibition of 567 nM.
In the case of Ac-Leu-Leu-Arg-kt [Ac-LLR-kt], the IC50 of enzyme inhibition is reported as 1480 nM.

Target: T1, Recombinant human hepsin (4776-SE-010, …)
Test: fluorogenic inhibition assay
Remark: another data set of the same source
Experimental: as §1
Binder B1 has a Ki of 0.41 nM.
B2 gave a Ki of 0.34 nM.
For B3, the Ki was 1.4 nM and 1.41 nM.
Binder B4 has a Ki of 0.61 nM.
Ac-Leu-Leu-Arg-kt [Ac-LLR-kt] was tested, and the Ki was 2.29 nM.

Target: T2, matriptase (Charles Craik, UCSF), …
Test: fluorogenic inhibition assay
Remark: another data set of the same source
Experimental: as §1
Binder B1 has a Ki of 22.3 nM.
For H-KQDRR-kt (lactam 1-3; also: 3:1 D/L diastereomers at the alpha keto carbon) [H-cyclo(KQD)RR-kt], the Ki was 0.71 nM.
In the case of B2, the Ki is reported as 9.2 nM.
In the case of B3, the Ki is reported as 12 nM and 12.4 nM.
B4 showed a Ki of 8.7 nM.
